# Experiment: soluble on expression in E. coli; label from the status in PepcDB or PDB records
row,Sequence,soluble on expression in E. coli
1,MSLIPIVASSPSPLISGDGDDALTATAVALATTAVHAADDLKIALIYGKTGPLEAYAKQTETGLMMGLEYATKGTMTLDGRKIVVITKDDQSKPDLSKAALAEAYQDDGADIAIGTSSSAAALADLPVAEENKKILIVEPAVADQITGEKWNRYIFRTGRNSSQDAISNAVAIGKQGVTIATLAQDYAFGRDGVAAFKEALAKTGATLATEEYVPTTTTDFTAVGQRLFDALKDKPGKKIIWVIWAGGGDPLTKLQDMDPKRYGIELSTGGNILPALAAYKRLPGMEGATYYYYDIPKNPINEWLVTEHQKRFNAPPDFFTAGGFSAAMAVVTAVQKAKSTDTEKLIAAMEGMEFDTPKGKMVFRKEDHQALQSMYHFKVKVDPAVAWAVLEPVRELKIEEMNIPIKNKGIITITTDPNSSSVDKLAAALEHHHHHH,soluble
2,MSLDQIKIAYIGGGSQGWARSLMSDLSIDERMSGTVALYDLDFEAAQKNEVIGNHSGNGRWRYEAVSTLKKALSAADIVIISILPGSLDDMEVDVHLPERCGIYQSVGDTVGPGGIIRGLRAVPIFAEIARAIRDYAPESWVINYTNPMSVCTRVLYKVFPGIKAIGCCHEVFGTQKLLAEMVTERLGIEVPRREDIRVNVLGINHFTWITKASYRHIDLLPIFREFSAHYGESGYELEGECWRDSVFCSAHRVAFDLFETYGAIPAAGDRHLAEFLPGPYLKQPEVWKFHLTPISFRKQDRAEKRQETERLIVQQRGVAEKASGEEGVNIIAALLGLGELVTNVNMPNQGQVLNLPIQAIVETNAFITRNRVQPILSGALPKGVEMLAARHISNQEAVADAGLTKDTGLAFQAFLNDPLVQIDRSDAEQLFNDMLQCIMQSEGHHHHHH,soluble
3,METFQKIKELVVVPERQSVILSVKQDLVNPLQDIAQQMAQYVTREYPLTLIDGVKLTPALEEQAFATYQTVQNLLTLKASVEDIAEALDVLEGGLTMQKVSNAEARAKAYITALNGISLWALLQAVKNLVRGEAKGMSTTFVPSCADLAQYCRDLENRLSGTAEKVFIAVENSRNLALGGKRISFMRIGKPCEELHGNLSSKAA,not soluble
4,MNVRDLSFKLNSIFDINKYEHIDKNLNGLQVGNINAKVNKVAFAVDASFSTLKEAKGNDFLITHHGIFWSKKERIVSNMYDKTKFLIENNLALYSVHLPMDAHSVYSHSKVFSDFLGLKNSFAFANYGGVNLGIIADSVFSFSEILEKIKKENKHILFSKKFKESVNKVAIVSGSGYSFFEEALCHDVDLFITGDTSHQIYSLAEEFGVNLIFAGHYFTETFGLIKLMEDFKIQEDLEVKFICKNTNLLEHHHHHH,not soluble
5,KNFHVVLEAAWLVRDVKTADDAIGVAISEAGKRLNPKLDFVEVDVGTTSCPVCGEPFSSVFIAANTALVGLIFEMKVFDAESAEHAERIAKSVIGKSLRDVP,not soluble
6,MALHVDYTAERAFARIIGGLRSARLDAGLSQNALAAGMPVRGRAISEWETRAVEPTLGHLIQWARELGRRLVIVGRDGELRVGPVRQRPGETFEIFERRRLAVPLRNRRLALGMAQGELGALVGVSRDSIQRWELVRVPPRPIAHVVWAQKLGCSLDILVVPDGARRVRRTGFAPAGLAGSTLERPGLRVQRLGL,not soluble
7,MVHLAKYIVVTGGVVSSIGKGITAASIGRILRSYGLSVTAIKIDPYLNWDSGTLNPYQHGEVFVTDDGMETDLDLGHYERFLDSDLPGEANITTGKVYMSVINKERSGDYLGSCVQIIPHITDEIKSMIRKIADKSGAEVVLVEVGGTVGDIEGQPFLEALRQLRNEEGHENVMFVHVTYVPYLRAAGEFKTKPTQHSTKELRSTGINPDMIICRSEMPIDSSLKRKIAHFCDVEEEAVVNAPDASSIYEVPLVLDSERVGDYIVRRIELDVDGEADLSEWAGIVESLMIDEPVVTVGIVGKYVELEDSYISIREALKHAAAHLRVRVDIEWISADDAVNEEDLSRLDSILIPGGFGERGIAGKLEAVRFALENRVPIFGICLGMQCMVIEFARLNGMEGANSTEFDPETPYPVIDMMEEQKRIKNMGGTMRLGSYQCRIREGTLAHEAYGTELVGERHRHRFELNNEFREELESKGLIISGTSPDDFLVEMVEIKDHPWFLGCQFHPEFRSRPNRAHPLFVSFLRAALERSR,soluble
8,MGSDKIHHHHHHLRASSSIRVGAERAHLAIGAASKRMADLEASIGVQLFERHARGVALTAAGEALERHTQRILNDMDRMTAEMSDYAAGVVGVVRLWANTSSVTQFLPTDIAAFSVVHPDIRIELEEQDSEQVALAVVDGAADFGIMADRMPTLGLQAMLYRKDHLFLVVPDGHPLTQRESVSFVDALEFDFVSLARNTSLAKRLQAATAFSGGQIKLRIQVRSFDAMCLMVAAGPGIAILPDAAVGPHLRSMDLCRIPLSENWTRRELFICARDLNALPRPASLLVNHLIGATPDAVAVR,not soluble
9,MNINILLSTYNGERFLAEQIQSIQRQTVNDWTLLIRDDGSTDGTQDIIRTFVKEDKRIQWINEGQTENLGVIKNFYTLLKHQKADVYFFSDQDDIWLDNKLEVTLLEAQKHEMTAPLLVYTDLKVVTQHLAVCHDSMIKTQSGHANTSLLQELTENTVTGGTMMITHALAEEWTTCDGLLMHDWYLALLASAIGKLVYLDIPTELYRQHDANVLGARTWSKRMKNWLTPHHLVNKYWWLITSSQKQAQLLLDLPLKPNDHELVTAYVSLLDMPFTKRLATLKRYGFRKNRIFHTFIFRSLVVTLFGYRRK,not soluble
10,MGSDKIHHHHHHMRTYRSFKMFTNSSQGVRKVRVGIAGLGTVGGSIYRILKERGNEIEKRIGEKFIISKVINRSPQKYELLGVPKEEIAFDFDDLILNSDVVVEAIGGTDVAVDLVRRALELGRIVVTPNKNLISEYGNEFSEYIKKRKLFFEASVGGGIPIISLLQDYLIFQKVTRIRGIMNGTTNYILTEMSKGRHFEEVLKEAQELGYAEADPTNDIEGYDVAYKVSVLAGVVTGRFPGINSVQFEGITRIDPEYLKEIVRSGKKLKLIGELDFSTNRYEVRLREVTPEDPFFNVDGVDNAIEVSTDLAGDFLLKGRGAGGYPTASAVIADLFRVAKYKVLGGAEKFSVVVMKFGGAAISDVEKLEKVAEKIIKRKKSGVKPVVVLSAMGDTTDHLIELAKTIDENPDPRELDLLLSTGEIQSVALMSIALRKRGYKAISFTGNQLKIITDKRYGSARIIDINTDIISRYLKQDFIPVVAGFQGITETGDITTLGRGGSDLTAIALAYSLGADLCELYKDVDGVYTADPRIVKDARVIKELSWEEMIELSRHGAQVLQARAAEFARKYGVKVLIKNAHKETRGTLIWEGTKVENPIVRAVTFEDGMAKVVLKDVPDKPGVAARIMRTLSQMGVNIDMIIQGMKSGEYNTVAFIVPESQLGKLDIDLLKTRSEAKEIIIEKGLAKVSIVGVNLTSTPEISATLFETLANEGINIDMISASSSRISVIIDGKYVEDAVKAIHSRFELDRE,not soluble
11,MGSDKIHHHHHHMLVNAYFIKLDSCQLPPRDLAVSVFLNLSKFNMPLTMPHLLELFVDSYFIEKKKRLRQCLQEPLDCGPVFHFSEPWEGLLSGYCTVLEDPLDGYFKLYYRGLSDGNLECSDGEVTCLALSHNGVEWFRPNLGLHKWLNRKSTNIILANNTPDSHNFTPFLDSSPTTLSHQRYKALAGVAPSGLNAYFSADGINWTNPYSKPVLTTGMFDSQNVAFWSSSEQKYVCFMRTWTGEGFSGIRTISRSTSTDFSSWTVPRRMSFGRIPLEHLYTNQTQPYPRAQQIYIGLAARFMPERQVITTEEALELSVDPSYYRDCSDVVLITSRGGNRYHRAVRQAFLKPGIGLENWVSRTNFPALGFIHTKPDEISFYMNKNYAQPNAYLSRFSFPLDRLGYLEASDSYGELITKSIPISSQDDLHLNLSTSAAGSCFVALLDENDATVSQFDMSSCLELIGNELSKPVRWLSSNGVSLRIGDSGLSSVKLHIRLLDARLFAFSLCSTDR,not soluble
12,DTTERKRREKRLEETSSRLEALFENSPDMIDVLDADGTICEVNQRFCAELGYDESEVLGRSIWEFDLMFDAEDVQTQLSGFSVDERRKFEGLYERRDGSTMSVEVHLLRFNLEGEDRFLAISRD,soluble
13,PVIGSVAPESLAAQAGLEAGQELLAVDGEPVTGWNGVNLQLVRRLGESGTLEVRVQEKGSNVDSTHQVRLDGWLKGEDNPDPIASLGIRPWRPALPPVLAELDPKGPAQAAGLKLGDRLQSIDGIAVDDWQQVVDSVRARPGQRVQLKVLRDGEVLDVALELAVRGEGKARSGYMGAGVAGTEWPAEMLREVSYGPLEAVGQALSRTWTMSLLTLDSIKKMLLGELSVKNLSGPITIAKVAGASAQSGVGDFLNF,not soluble

# From the DeepSol protein solubility set
